Results taken from patent US20230346885A1 (published 2023).
Blank lines part the entries; values can stand above or below the binder they belong to.

Legend:
Experiment in all cases: binding, other
CLDN6 peptide on HLA [1] = biological target: T1, CLDN6 peptide on HLA (human)
T1 peptide: TLIPVCWTA

CT45A1 peptide on HLA [2] = biological target: T2, CT45A1 peptide on HLA (human)
T2 peptide: KLVKELRCV

BRDT peptide on HLA = biological target: T3, BRDT peptide on HLA (human)
T3 peptide: EMFPKFTEV

CT45A1 peptide on HLA [3] = biological target: T4, CT45A1 peptide on HLA (human)
T4 peptide: KIFEMLEGV

CT45A1 peptide on HLA [4] = biological target: T5, CT45A1 peptide on HLA (human)
T5 peptide: SLIAGSAMSKA

CALHM3 peptide on HLA = biological target: T6, CALHM3 peptide on HLA (human)
T6 peptide: ALLDGKCFV

CLDN6 peptide on HLA [5] = biological target: T7, CLDN6 peptide on HLA (human)
T7 peptide: VLTSGIVFV

binding result (CLDN6 peptide on HLA [1]): recognises
B1: TCR of SEQ ID NOs 329 and 330 (TCR, V domains shown)
Valpha: KQEVTQIPAALSVPEGENLVLNCSFTDSAIYNLQWFRQDPGKGLTSLLLIQSSQREQTSGRLNASLDKSSGRSTLYIAASQPGDSATYLCAVQGYGTALIFGKGTTLSVSS
Vbeta: NAGVTQTPKFQVLKTGQSMTLQCAQDMNHEYMSWYRQDPGMGLRLIHYSVGAGITDQGEVPNGYNVSRSTTEDFPLRLLSAAPSQTSVYFCASSQGPYMNTEAFFGQGTRLTVV

binding result (CT45A1 peptide on HLA [2]): recognises
B2: TCR of SEQ ID NOs 347 and 348 (TCR, V domains shown)
Valpha: KQEVTQIPAALSVPEGENLVLNCSFTDSAIYNLQWFRQDPGKGLTSLLLIQSSQREQTSGRLNASLDKSSGRSTLYIAASQPGDSATYLCAVRTTDSWGKLQFGAGTPVVVTP
Vbeta: NAGVTQTPKFQVLKIGQSMTLQCTQDMNHNYMYWYRQDPGMGLKLIYYSVGAGITDKGEVPNGYNVSRSTTEDFPLRLELAAPSQTSVYFCASSSPLGKQYFGPGTRLTVL

binding result (CT45A1 peptide on HLA [2]): recognises
B3: TCR of SEQ ID NOs 351 and 352 (TCR, V domains shown)
Valpha: KQEVTQIPVALSVPEGENLVLNCSFTDSAIYNLQWFRQDPGKGLTSLLLIQSSQREQTSGRLNASLDKSSGRSTLYIAASQPGDSATYLCALRGEADSWGKLQFGAGTQVVVTP
Vbeta: NAGVTQTPKFQVLKTGQSMTLQCAQDMNHNYMYWYRQDPGMGLKLIYYSVGAGITDKGEVPNGYNVSRSTTEDFPLRLELAAPSQTSVYFCASSSPLGEQYFGPGTRLTVT

binding result (BRDT peptide on HLA): recognises
B4: TCR of SEQ ID NOs 313 and 314 (TCR, V domains shown)
Valpha: KQEVTQIPAALSVPEGENLVLNCSFTDSAIYNLQWFRQDPGKGLTSLLLIQSSQREQTSGRLNASLDKSSGRSTLYIAASQPGDSATYLCAVSNYGGSQGNLIFGKGTKLSVKP
Vbeta: NAGVTQTPKFRVLKTGQSMTLLCAQDMNHEYMYWYRQDPGMGLRLIHYSVGEGTTAKGEVPDGYNVSRLKKQNFLLGLESAAPSQTSVYFCASTHWGRDSPLHFGNGTRLTVT

binding result (CT45A1 peptide on HLA [3]): recognises
B5: TCR of SEQ ID NOs 353 and 354 (TCR, V domains shown)
Valpha: QKEVEQNSGPLSVPEGAIASLNCTYSDRGSQSFFWYRQYSGKSPELIMSIYSNGDKEDGRFTAQLNKASQYVSLLIRDSQPSDSATYLCAVNYRGALTFGSGTRLQVQP
Vbeta: NAGVTQTPKFRILKIGQSMTLQCTQDMNHNYMYWYRQDPGMGLKLIYYSVGAGITDQGEVPNGYNVSRSTTEDFPLRLLSAAPSQTSVYFCASSYLRTGGNYGYTFGSGTRLTVV

binding result (CT45A1 peptide on HLA [4]): recognises
B6: TCR of SEQ ID NOs 341 and 342 (TCR, V domains shown)
Valpha: QKEVEQNSGPLSVPEGAIASLNCTYSDRGSQSFFWYRQYSGKSPELIMFIYSNGDKEDGRFTAQLNKASQYVSLLIRDSQPSDSATYLCAVGTSYDKVIFGPGTSLSVIP
Vbeta: NAGVTQTPKFQVLKTGQSMTLQCAQDMNHEYMSWYRQDPGMGLRLIHYSVGAGITDQGEVPNGYNVSRSTTEDFPLRLLSAAPSQTSVYFCASSYGGGSGYTFGSGTRLTVV

binding result (CALHM3 peptide on HLA): recognises
B7: TCR of SEQ ID NOs 323 and 324 (TCR, V domains shown)
Valpha: KQEVTQIPAALSVPEGENLVLNCSFTDSAIYNFQWFRQDPGKGLTSLLLIQSSQREQTSGRLNASLDKSSGRSTLYIAASQPGDSATYLCAAHPATGANSKLTFGKGITLSVRP
Vbeta: NAGVTQTPKFQVLKTGQGMTLQCAQDMNHNSMYWYRQDPGMGLRLIYYSASEGTTDKGEVPNGYNVSRLNKREFSLRLESAAPSQTSVYFCASSEASGSNSPLHFGNGTRLTVT

binding result (CT45A1 peptide on HLA [4]): recognises
B8: TCR of SEQ ID NOs 345 and 346 (TCR, V domains shown)
Valpha: KQEVTQIPAALSVPEGENLVLNCSFTDSAIYNLQWFRQDPGKGLTSLLLIQSSQREQTSGRLNASLDKSSGRSTLYIAASQPGDSATYLCAVRGYQKVTFGTGTKLQVIP
Vbeta: NAGVTQTPKFQVLKTGQSMTLQCAQDMNHNSMYWYRQDPGMGLRLIYYSASEGTTDKGEVPNGYNVSRLNKREFSLRLESAAPSQTSVYFCASSEASGLRSPLHFGNGTRLTVT

binding result (CALHM3 peptide on HLA): recognises
B9: TCR of SEQ ID NOs 325 and 326 (TCR, V domains shown)
Valpha: QKEVEQNSGPLSVPEGAIASLNCTYSDRGSQSFFWYRQYSGKSPELIMFIYSNGDKEDGRFTAQLNKASQYVSLLIRDSQPSDSATYLCAVRTPSGSARQLTFGSGTQLTVLP
Vbeta: DAGVTQSPTHLIKTRGQHVTLRCSPKSGHDTVSWYQQALGQGPQFIFQYYGEEERQRGNFPDRFSGHQFPNYSSELNVNALLLGDSALYLCASSLGAGGGHSGNTIYFGEGSWLTVV

binding result (CT45A1 peptide on HLA [3]): recognises
B10: TCR of SEQ ID NOs 355 and 356 (TCR, V domains shown)
Valpha: KQEVTQIPAALSVPEGENLVLNCSFTDSAIYNLQWFRQDPGKGLTSLLLIQSSQREQTSGRLNASLDKSSGRSTLYIAASQPGDSATYLCAVWRTTDSWGKLQFGAGTQVVVTP
Vbeta: NAGVTQTPKFRILKIGQSMTLQCTQDMNHNYMYWYRQDPGMGLKLIYYSVGAGITDKGEVPNGYNVSRSTTEDFPLRLLSAAPSQTSVYFCASSYGQGYGYTFGSGTRLTVV

binding result (CLDN6 peptide on HLA [5]): recognises
B11: TCR of SEQ ID NOs 337 and 338 (TCR, V domains shown)
Valpha: KQEVTQIPAALSVPEGENLVLNCSFTDSAIYNLQWFRQDPGKGLTSLLLIQSSQREQTSGRLNASLDKSSGRSTLYIAASQPGDSATYLCAVRHNQGGKLIFGQGTELSVKP
Vbeta: NAGVTQTPKFRVLKTGQSMTLLCAQDMNHEYMYWYRQDPGMGLRLIHYSVGAGITDQGEVPNGYNVSRLNKREFSLRLESAAPSQTSVYFCASSDRGVYEQYFGPGTRLTVT

binding result (BRDT peptide on HLA): recognises
B12: TCR of SEQ ID NOs 315 and 316 (TCR, V domains shown)
Valpha: KQEVTQIPAALSVPEGENLVLNCSFTDSAIYNLQWFRQDPGKGLTSLLLIQSSQREQTSGRLNASLDKSSGRSTLYIAASQPGDSATYLCAVSPRSNDYKLSFGAGTTVTVRA
Vbeta: NAGVTQTPKFRILKIGQSMTLQCTQDMNHNYMYWYRQDPGMGLKLIYYSVGAGTTDKGEVPNGYNVSRLNKREFSLRLESAAPSQTSVYFCASSATRRGDYGYTFGSGTRLTVV

binding result (CLDN6 peptide on HLA [5]): recognises
B13: TCR of SEQ ID NOs 335 and 336 (TCR, V domains shown)
Valpha: KQEVTQIPAALSVPEGENLVLNCSFTDSAIYNLQWFRQDPGKGLTSLLLIQSSQREQTSGRLNASLDKSSGRSTLYIAASQPGDSATYLCAVRHLSNDYKLSFGAGTTVTVRA
Vbeta: NAGVTQTPKFQVLKTGQSMTLQCAQDMNHEYMSWYRQDPGMGLRLIHYSVGAGITDQGEVPNGYNVSRSTTEDFPLRLLSAAPSQTSVYFCASKRGFDEGSPLHFGNGTRLTVT

binding result (CLDN6 peptide on HLA [5]): recognises
B14: TCR of SEQ ID NOs 339 and 340 (TCR, V domains shown)
Valpha: KQEVTQIPAALSVPEGENLVLNCSFTDSAIYNLQWFRQDPGKGLTSLLLIQSSQREQTSGRLNASLDKSSGRSTLYIAASQPGDSATYLCAVRPLGGGYQKVTFGTGTKLQVIP
Vbeta: NAGVTQTPKFRVLKTGQSMTLQCAQDMNHNSMYWYRQDPGMGLRLIYYSASEGTTDKGEVPNGYNVSRLNKREFSLRLESAAPSQTSVYFCASSDTGTSVTGELFFGEGSRLTVL

binding result (CLDN6 peptide on HLA [1]): recognises
B15: TCR of SEQ ID NOs 331 and 332 (TCR, V domains shown)
Valpha: KQEVTQIPAALSVPEGENLVLNCSFTDSAIYNLQWFRQDPGKGLTSLLLIQSSQREQTSGRLNASLDKSSGRSTLYIAASQPGDSATYLCAAKAAGNKLTFGGGTRVLVKP
Vbeta: NAGVTQTPKFQVLKTGQSMTLQCAQDMNHNSMYWYRQDPGMGLRLIYYSASEGTTDKGEVPNGYNVSRLNKREFSLRLESAAPSQTSVYFCASSESLGVTGTAFFGQGTRLTVV

binding result (CLDN6 peptide on HLA [1]): recognises
B16: TCR of SEQ ID NOs 333 and 334 (TCR, V domains shown)
Valpha: KQEVTQIPAALSVPEGENLVLNCSFTDSAIYNLQWFRQDPGKGLTSLLLIQSSQREQTSGRLNASLDKSSGRSTLYIAASQPGDSATYLCAVKKDAGNKLTFGGGTRVLVKP
Vbeta: NAGVTQTPKFQVLKTGQSMTLQCAQDMNHNSMYWYRQDPGMGLRLIYYSASEGTTDKGEVPNGYNVSRLNKREFPLRLLSAAPSQTSVYFCASSRRLGASSEAFFGQGTRLTVV

binding result (CT45A1 peptide on HLA [4]): recognises
B17: TCR of SEQ ID NOs 343 and 344 (TCR, V domains shown)
Valpha: QKEVEQNSGPLSVPEGAIASLNCTYSDRGSQSFFWYRQYSGKSPELIMFIYSNGDKEDGRFTAQLNKASQYVSLLIRDSQPSDSATYLCAVGGAGGYQKVTFGTGTKLQVIP
Vbeta: NAGVTQTPKFQVLKTGQSMTLQCAQDMNHEYMSWYRQDPGMGLRLIHYSVGAGITDQGEVPNGYNVSRSTTEDFPLRLLSAAPSQTSVYFCASSYSGNEQYFGPGTRLTVT

binding result (CALHM3 peptide on HLA): recognises
B18: TCR of SEQ ID NOs 327 and 328 (TCR, V domains shown)
Valpha: GNSVTQMEGPVTLSEEAFLTINCTYTATGYPSLFWYVQYPGEGLQLLLKATKADDKGSNKGFEATYRKETTSFHLEKGSVQVSDSAVYFCAPHTDKLIFGTGTRLQVFP
Vbeta: DSGVTQTPKHLITATGQRVTLRCSPRSGDLSVYWYQQSLDQGLQFLIQYYNGEERAKGNILERFSAQQFPDLHSELNLSSLELGDSALYFCASSGGTGDGYTFGSGTRLTVV

binding result (BRDT peptide on HLA): recognises
B19: TCR of SEQ ID NOs 311 and 312 (TCR, V domains shown)
Valpha: KQEVTQIPAALSVPEGENLVLNCSFTDSAIYNLQWFRQDPGKGLTSLLLIQSSQREQTSGRLNASLDKSSGRSTLYIAASQPGDSATYLCAVTGGTSYGKLTFGQGTILTVHP
Vbeta: NAGVTQTPKFRILKIGQSMTLQCTQDMNHNYMYWYRQDPGMGLKLIYYSVGAGITDKGEVPNGYNVSRSTTEDFPLRLELAAPSQTSVYFCASSYWAGVLTEAFFGQGTRLTVV

binding result (CT45A1 peptide on HLA [3]): recognises
B20: TCR of SEQ ID NOs 357 and 358 (TCR, V domains shown)
Valpha: KQEVTQIPAALSVPEGENLVLNCSFTDSAIYNLQWFRQDPGKGLTSLLLIQSSQREQTSGRLNASLDKSSGRSTLYIAASQPGDSATYLCAVKVWSNTGKLIFGQGTTLQVKP
Vbeta: NAGVTQTPKFRILKIGQSMTLQCTQDMNHNYMYWYRQDPGMGLKLIYYSVGAGITDKGEVPNGYNVSRSTTEDFPLRLELAAPSQTSVYFCASSYEGDISYGYTFGFGTRLTVV

binding result (CT45A1 peptide on HLA [2]): recognises
B21: TCR of SEQ ID NOs 349 and 350 (TCR, V domains shown)
Valpha: KQEVTQIPAALSVPEGENLVLNCSFTDSAIYNLQWFRQDPGKGLTSLLLIQSSQREQTSGRLNASLDKSSGRSTLYIAASQPGDSATYLCAVTNAGKSTFGDGTTLTVKP
Vbeta: NAGVTQTPKFQVLKTGQSMTLQCAQDMNHEYMSWYRQDPGMGLRLIHYSVGAGITDQGEVPNGYNVSRSTTEDFPLRLESAAPSQTSVYFCASSEVPGPYGYTFGSGTRLTVV
